The results in this text go back to publication PMC9930725 (Nature, 2022).

The data set “SEC” deals with the molecule itself. As to the kind of experiment: SEC.
The data set “thermal reversion rate” deals with the molecule itself. In words: thermal reversion rate.

B1: PhyB N982 fragment (domain or fragment, Arabidopsis thaliana, UniProt P14713 1-982, looked up)
chain: MVSGVGGSGGGRGGGRGGEEEPSSSHTPNNRRGGEQAQSSGTKSLRPRSNTESMSKAIQQYTVDARLHAVFEQSGESGKSFDYSQSLKTTTYGSSVPEQQITAYLSRIQRGGYIQPFGCMIAVDESSFRIIGYSENAREMLGIMPQSVPTLEKPEILAMGTDVRSLFTSSSSILLERAFVAREITLLNPVWIHSKNTGKPFYAILHRIDVGVVIDLEPARTEDPALSIAGAVQSQKLAVRAISQLQALPGGDIKLLCDTVVESVRDLTGYDRVMVYKFHEDEHGEVVAESKRDDLEPYIGLHYPATDIPQASRFLFKQNRVRMIVDCNATPVLVVQDDRLTQSMCLVGSTLRAPHGCHSQYMANMGSIASLAMAVIINGNEDDGSNVASGRSSMRLWGLVVCHHTSSRCIPFPLRYACEFLMQAFGLQLNMELQLALQMSEKRVLRTQTLLCDMLLRDSPAGIVTQSPSIMDLVKCDGAAFLYHGKYYPLGVAPSEVQIKDVVEWLLANHADSTGLSTDSLGDAGYPGAAALGDAVCGMAVAYITKRDFLFWFRSHTAKEIKWGGAKHHPEDKDDGQRMHPRSSFQAFLEVVKSRSQPWETAEMDAIHSLQLILRDSFKESEAAMNSKVVDGVVQPCRDMAGEQGIDELGAVAREMVRLIETATVPIFAVDAGGCINGWNAKIAELTGLSVEEAMGKSLVSDLIYKENEATVNKLLSRALRGDEEKNVEVKLKTFSPELQGKAVFVVVNACSSKDYLNNIVGVCFVGQDVTSQKIVMDKFINIQGDYKAIVHSPNPLIPPIFAADENTCCLEWNMAMEKLTGWSRSEVIGKMIVGEVFGSCCMLKGPDALTKFMIVLHNAIGGQDTDKFPFPFFDRNGKFVQALLTANKRVSLEGKVIGAFCFLQIPSPELQQALAVQRRQDTECFTKAKELAYICQVIKNPLSGMRFANSLLEATDLNEDQKQLLETSVSCEKQISRIVGD
modifications: phytochromobilin (PΦB) bound
Regarding B1, the binding result in “SEC” was “binds”.

B2: PhyB N908 fragment (domain or fragment, Arabidopsis thaliana, UniProt P14713 1-908, looked up)
chain: MVSGVGGSGGGRGGGRGGEEEPSSSHTPNNRRGGEQAQSSGTKSLRPRSNTESMSKAIQQYTVDARLHAVFEQSGESGKSFDYSQSLKTTTYGSSVPEQQITAYLSRIQRGGYIQPFGCMIAVDESSFRIIGYSENAREMLGIMPQSVPTLEKPEILAMGTDVRSLFTSSSSILLERAFVAREITLLNPVWIHSKNTGKPFYAILHRIDVGVVIDLEPARTEDPALSIAGAVQSQKLAVRAISQLQALPGGDIKLLCDTVVESVRDLTGYDRVMVYKFHEDEHGEVVAESKRDDLEPYIGLHYPATDIPQASRFLFKQNRVRMIVDCNATPVLVVQDDRLTQSMCLVGSTLRAPHGCHSQYMANMGSIASLAMAVIINGNEDDGSNVASGRSSMRLWGLVVCHHTSSRCIPFPLRYACEFLMQAFGLQLNMELQLALQMSEKRVLRTQTLLCDMLLRDSPAGIVTQSPSIMDLVKCDGAAFLYHGKYYPLGVAPSEVQIKDVVEWLLANHADSTGLSTDSLGDAGYPGAAALGDAVCGMAVAYITKRDFLFWFRSHTAKEIKWGGAKHHPEDKDDGQRMHPRSSFQAFLEVVKSRSQPWETAEMDAIHSLQLILRDSFKESEAAMNSKVVDGVVQPCRDMAGEQGIDELGAVAREMVRLIETATVPIFAVDAGGCINGWNAKIAELTGLSVEEAMGKSLVSDLIYKENEATVNKLLSRALRGDEEKNVEVKLKTFSPELQGKAVFVVVNACSSKDYLNNIVGVCFVGQDVTSQKIVMDKFINIQGDYKAIVHSPNPLIPPIFAADENTCCLEWNMAMEKLTGWSRSEVIGKMIVGEVFGSCCMLKGPDALTKFMIVLHNAIGGQDTDKFPFPFFDRNGKFVQALLTANKRVSLEGKVIGAFCFLQIPS
modifications: phytochromobilin (PΦB) bound
For B2, the Kd in the data set “thermal reversion rate” was ~26 nM.

B3: PhyB N908(L427A) (domain or fragment, Arabidopsis thaliana, UniProt P14713 1-908, looked up)
chain: MVSGVGGSGGGRGGGRGGEEEPSSSHTPNNRRGGEQAQSSGTKSLRPRSNTESMSKAIQQYTVDARLHAVFEQSGESGKSFDYSQSLKTTTYGSSVPEQQITAYLSRIQRGGYIQPFGCMIAVDESSFRIIGYSENAREMLGIMPQSVPTLEKPEILAMGTDVRSLFTSSSSILLERAFVAREITLLNPVWIHSKNTGKPFYAILHRIDVGVVIDLEPARTEDPALSIAGAVQSQKLAVRAISQLQALPGGDIKLLCDTVVESVRDLTGYDRVMVYKFHEDEHGEVVAESKRDDLEPYIGLHYPATDIPQASRFLFKQNRVRMIVDCNATPVLVVQDDRLTQSMCLVGSTLRAPHGCHSQYMANMGSIASLAMAVIINGNEDDGSNVASGRSSMRLWGLVVCHHTSSRCIPFPLRYACEFLMQAFGAQLNMELQLALQMSEKRVLRTQTLLCDMLLRDSPAGIVTQSPSIMDLVKCDGAAFLYHGKYYPLGVAPSEVQIKDVVEWLLANHADSTGLSTDSLGDAGYPGAAALGDAVCGMAVAYITKRDFLFWFRSHTAKEIKWGGAKHHPEDKDDGQRMHPRSSFQAFLEVVKSRSQPWETAEMDAIHSLQLILRDSFKESEAAMNSKVVDGVVQPCRDMAGEQGIDELGAVAREMVRLIETATVPIFAVDAGGCINGWNAKIAELTGLSVEEAMGKSLVSDLIYKENEATVNKLLSRALRGDEEKNVEVKLKTFSPELQGKAVFVVVNACSSKDYLNNIVGVCFVGQDVTSQKIVMDKFINIQGDYKAIVHSPNPLIPPIFAADENTCCLEWNMAMEKLTGWSRSEVIGKMIVGEVFGSCCMLKGPDALTKFMIVLHNAIGGQDTDKFPFPFFDRNGKFVQALLTANKRVSLEGKVIGAFCFLQIPS
modifications: phytochromobilin (PΦB) bound
As for B3, the binding result in “SEC” is “binds”.

B4: Arabidopsis thaliana phytochrome B, full length (natural protein, UniProt P14713 1-1172, looked up)
chain: MVSGVGGSGGGRGGGRGGEEEPSSSHTPNNRRGGEQAQSSGTKSLRPRSNTESMSKAIQQYTVDARLHAVFEQSGESGKSFDYSQSLKTTTYGSSVPEQQITAYLSRIQRGGYIQPFGCMIAVDESSFRIIGYSENAREMLGIMPQSVPTLEKPEILAMGTDVRSLFTSSSSILLERAFVAREITLLNPVWIHSKNTGKPFYAILHRIDVGVVIDLEPARTEDPALSIAGAVQSQKLAVRAISQLQALPGGDIKLLCDTVVESVRDLTGYDRVMVYKFHEDEHGEVVAESKRDDLEPYIGLHYPATDIPQASRFLFKQNRVRMIVDCNATPVLVVQDDRLTQSMCLVGSTLRAPHGCHSQYMANMGSIASLAMAVIINGNEDDGSNVASGRSSMRLWGLVVCHHTSSRCIPFPLRYACEFLMQAFGLQLNMELQLALQMSEKRVLRTQTLLCDMLLRDSPAGIVTQSPSIMDLVKCDGAAFLYHGKYYPLGVAPSEVQIKDVVEWLLANHADSTGLSTDSLGDAGYPGAAALGDAVCGMAVAYITKRDFLFWFRSHTAKEIKWGGAKHHPEDKDDGQRMHPRSSFQAFLEVVKSRSQPWETAEMDAIHSLQLILRDSFKESEAAMNSKVVDGVVQPCRDMAGEQGIDELGAVAREMVRLIETATVPIFAVDAGGCINGWNAKIAELTGLSVEEAMGKSLVSDLIYKENEATVNKLLSRALRGDEEKNVEVKLKTFSPELQGKAVFVVVNACSSKDYLNNIVGVCFVGQDVTSQKIVMDKFINIQGDYKAIVHSPNPLIPPIFAADENTCCLEWNMAMEKLTGWSRSEVIGKMIVGEVFGSCCMLKGPDALTKFMIVLHNAIGGQDTDKFPFPFFDRNGKFVQALLTANKRVSLEGKVIGAFCFLQIPSPELQQALAVQRRQDTECFTKAKELAYICQVIKNPLSGMRFANSLLEATDLNEDQKQLLETSVSCEKQISRIVGDMDLESIEDGSFVLKREEFFLGSVINAIVSQAMFLLRDRGLQLIRDIPEEIKSIEVFGDQIRIQQLLAEFLLSIIRYAPSQEWVEIHLSQLSKQMADGFAAIRTEFRMACPGEGLPPELVRDMFHSSRWTSPEGLGLSVCRKILKLMNGEVQYIRESERSYFLIILELPVPRKRPLSTASGSGDMMLMMPY
modifications: phytochromobilin (PΦB) covalently linked to Cys357
B4: the “stoichiometry N” value in “SEC” came to 2.
